Measured values published in publication PMC5389901.

Target: INSM1 ZF4-5 (Homo sapiens, UniProt Q01101 424-497)
Assay: ITC

Chain of INSM1 ZF4-5 (Q01101 424-497): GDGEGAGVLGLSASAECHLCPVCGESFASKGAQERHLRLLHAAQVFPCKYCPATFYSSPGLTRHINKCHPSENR

B1: INSM1 consensus dsDNA (dsDNA)
DNA 1: TGTCAGGGGGCA
DNA 2: TGCCCCCTGACA
**Q.** For B1, which Kd is on record?
**A.** 21.8 µM
